Assay results taken from US20230416364A1 (Bristol-Myers Squibb, published 2023).

T1: human CD25 (IL-2R alpha) on HEK-Blue IL-2 reporter cells (human, UniProt P01589 22-272)
T1 sequence: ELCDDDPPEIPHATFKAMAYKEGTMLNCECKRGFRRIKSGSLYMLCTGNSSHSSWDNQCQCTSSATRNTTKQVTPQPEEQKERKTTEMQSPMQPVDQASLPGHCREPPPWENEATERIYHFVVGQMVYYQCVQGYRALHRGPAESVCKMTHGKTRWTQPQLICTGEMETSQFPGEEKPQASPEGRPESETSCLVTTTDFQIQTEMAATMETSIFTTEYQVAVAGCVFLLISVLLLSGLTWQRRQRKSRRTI

B1: anti-mPD-1 mAb 4H2 fused to mCD25 variant a (full-length mCD25 ECD) (other)
heavy: QVQLKESGPGLVQPSQTLSLTCTVSGFSLTSYNVHWVRQPPGKGLEWMGGMRYNEDTSYNSALKSRLSISRDTSKNQVFLKMNSLQTDDTGTYYCTRDAVYGGYGGWFAYWGQGTLVTVSSAKTTPPSVYPLAPGSAAQTNSMVTLGCLVKGYFPEPVTVTWNSGSLSSGVHTFPAVLESDLYTLSSSVTVPSSTWPSETVTCNVAHPASSTKVDKKIVPRDCGCKPCICTVPEVSSVFIFPPKPKDVLTITLTPKVTCVVVAISKDDPEVQFSWFVDDVEVHTAQTQPREEQFNSTFRSVSELPIMHQDWLNGKEFKCRVNSAAFPAPIEKTISKTKGRPKAPQVYTIPPPKKQMAKDKVSLTCMITDFFPEDITVEWQWNGQPAENYKNTQPIMKTDGSYFVYSKLNVQKSNWEAGNTFTCSVLHEGLHNHHTEKSLSHSPGGGGSGGGGSGGGGSELCLYDPPEVPNATFKALSYKNGTILNCECKRGFRRLKELVYMRCLGNSWSSNCQCTSNSHDKSRKQVTAQLEHQKEQQTTTDMQKPTQSMHQENLTGHCREPPPWKHEDSKRIYHFVEGQSVHYECIPGYKALQRGPAISICKMKCGKTGWTQPQLTCVDEREHHRFLASEESQGSRNSSPESETSCPITTTDFPQPTETTAMTETFVLTMEYK
light: DTVLTQSPALAVSLGQRVTISCKASETVSSSMYSYIHWYQQKPGQQPKLLIYRASNLESGVPARFSGSGSGTDFTLTIDPVEADDVATYFCQQSWNPWTFGGGTKLELKRADAAPTVSIFPPSSEQLTSGGASVVCFLNNFYPKDINVKWKIDGSERQNGVLNSWTDQDSKDSTYSMSSTLTLTKDEYERHNSYTCEATHKTSTSPIVKSFNRNEC
notes: also called 4H2-mCD25 variant a; mPD1-mCD25 variant a
B2: anti-mPD-1 mAb 4H2 fused to mCD25 variant b (other)
heavy: QVQLKESGPGLVQPSQTLSLTCTVSGFSLTSYNVHWVRQPPGKGLEWMGGMRYNEDTSYNSALKSRLSISRDTSKNQVFLKMNSLQTDDTGTYYCTRDAVYGGYGGWFAYWGQGTLVTVSSAKTTPPSVYPLAPGSAAQTNSMVTLGCLVKGYFPEPVTVTWNSGSLSSGVHTFPAVLESDLYTLSSSVTVPSSTWPSETVTCNVAHPASSTKVDKKIVPRDCGCKPCICTVPEVSSVFIFPPKPKDVLTITLTPKVTCVVVAISKDDPEVQFSWFVDDVEVHTAQTQPREEQFNSTFRSVSELPIMHQDWLNGKEFKCRVNSAAFPAPIEKTISKTKGRPKAPQVYTIPPPKKQMAKDKVSLTCMITDFFPEDITVEWQWNGQPAENYKNTQPIMKTDGSYFVYSKLNVQKSNWEAGNTFTCSVLHEGLHNHHTEKSLSHSPGGGGSGGGGSGGGGSELCLYDPPEVPNATFKALSYKNGTILNCECKRGFRRLKELVYMRCLGNSWSSNCQCTSNSHDKSRKQVTAQLEHQKEQQTTTDMQKPTQSMHQENLTGHCREPPPWKHEDSKRIYHFVEGQSVHYECIPGYKALQRGPAISICKMKCGKTGWTQPQLTCVDEREHHRFLASEESQGSRNSSPESETSCPITTTDFPQP
light: B1 light
notes: also called 4H2-mCD25 variant b; mPD1-mCD25 variant b
B3: mouse IL-2 (ligand, UniProt P04351 21-169, looked up)
chain: APTSSSTSSSTAEAQQQQQQQQQQQQHLEQLLMDLQELLSRMENYRNLKLPRMLTFKFYLPKQATELKDLQCLEDELGPLRHVLDLTQSKSFQLEDAENFISNIRVTVVKLKGSDNTFECQFDDESATVVDFLRRWIAFCQSIISTSPQ

How the values were obtained:
mouse IL-2 = target: B3; assay: SPR, Biacore T200, 37° C., fusion captured by anti-mouse IgG on CM4 chip, mIL-2 as analyte
Experimental: Truncations of mCD25 are presented at FIG. 3A.
Unless otherwise indicated, binding kinetics were determined with a BIACORE® SPR surface plasmon resonance spectrometer (Biacore AB, Uppsala, Sweden). […] The assay temperature was 37° C. and the running buffer was HEPES buffered saline pH 7.4 supplemented with 0.05% (v/v) Tween-20 and 1 g/L BSA. Purified mPD1−mCD25 variants were captured on a Biacore™ CM4 chip with immobilized anti-mouse IgG polyclonal capture antibody. […] Between cycles, the capture surface was regenerated for three minutes with 10 mM Glycine pH 1.7. Double-referenced sensorgrams were fitted to a 1:1 Langmuir binding model with mass transport to determine equilibrium dissociation constants (KD), as well as association (kₐ) and dissociation (kd) rate constants where appropriate.

[1] = target: T1, human CD25 (IL-2R alpha) on HEK-Blue …; assay: cell-based or functional assay
[2] = target: hemi-mCD25 modified anti-mPD-1 antibody 4H2 (4H2 mG1 D265A KK CD25.b+4H2 mG1 D265A blank); assay: cell-based or functional assay
[3] = target: fully mCD25 modified anti-mPD-1 antibody 4H2, (4H2 mG1 D265A KK CD25.b)2; assay: cell-based or functional assay

| Binder | Kd (mouse IL-2) [nM] | EC50 (read off the curve); SEAP reporter (ABS620), HEK-Blue IL-2 CD25+ cells [1] [pM] | EC50 of mIL-2 (read off the curve) with 280 pM fusion; SEAP reporter (ABS620), CD25- mPD-1+ HEK-Blue IL-2 cells [2] [pM] | EC50 of mIL-2 (read off the curve) with 2.8 nM fusion; SEAP reporter (ABS620), CD25- mPD-1+ HEK-Blue IL-2 cells [2] [pM] | EC50 of mIL-2 (read off the curve) with 260 pM fusion; SEAP reporter (ABS620), CD25- mPD-1+ HEK-Blue IL-2 cells [3] [pM] | EC50 of mIL-2 (read off the curve) with 2.6 nM fusion; SEAP reporter (ABS620), CD25- mPD-1+ HEK-Blue IL-2 cells [3] [pM] |
| --- | --- | --- | --- | --- | --- | --- |
| B1 | 14 |  |  |  |  |  |
| B2 | 14 |  |  |  |  |  |
| B3 |  | ~50 | ~300 | ~100 | ~200 | ~100 |
